Results: US20240294650A1 (Alector, published 2024)

T1: Recombinant human MerTK-human Fc Chimera protein (human, UniProt Q12866 26-499, limits assumed)
T1 construct: bought construct; also called MerTK-Fc (R&D systems, Cat #391-MR-100)
T1 sequence: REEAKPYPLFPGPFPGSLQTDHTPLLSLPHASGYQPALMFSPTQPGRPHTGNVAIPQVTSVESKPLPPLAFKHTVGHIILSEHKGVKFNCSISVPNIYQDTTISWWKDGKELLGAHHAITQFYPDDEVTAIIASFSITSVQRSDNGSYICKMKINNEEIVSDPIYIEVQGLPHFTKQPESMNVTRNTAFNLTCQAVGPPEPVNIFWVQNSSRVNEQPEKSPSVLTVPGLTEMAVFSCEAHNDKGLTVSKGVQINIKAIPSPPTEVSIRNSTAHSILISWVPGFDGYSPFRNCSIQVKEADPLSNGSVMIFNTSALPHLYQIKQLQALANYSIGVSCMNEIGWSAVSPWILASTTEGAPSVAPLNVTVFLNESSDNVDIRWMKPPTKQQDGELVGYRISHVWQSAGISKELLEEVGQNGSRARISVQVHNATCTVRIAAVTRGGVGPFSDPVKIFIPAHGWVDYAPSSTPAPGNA

T2: mouse MerTK overexpressed on CHO cells (mouse, UniProt Q60805 19-994)
T2 construct: whole, on cells; also called CHO-muMerTK OE
T2 sequence (looked up): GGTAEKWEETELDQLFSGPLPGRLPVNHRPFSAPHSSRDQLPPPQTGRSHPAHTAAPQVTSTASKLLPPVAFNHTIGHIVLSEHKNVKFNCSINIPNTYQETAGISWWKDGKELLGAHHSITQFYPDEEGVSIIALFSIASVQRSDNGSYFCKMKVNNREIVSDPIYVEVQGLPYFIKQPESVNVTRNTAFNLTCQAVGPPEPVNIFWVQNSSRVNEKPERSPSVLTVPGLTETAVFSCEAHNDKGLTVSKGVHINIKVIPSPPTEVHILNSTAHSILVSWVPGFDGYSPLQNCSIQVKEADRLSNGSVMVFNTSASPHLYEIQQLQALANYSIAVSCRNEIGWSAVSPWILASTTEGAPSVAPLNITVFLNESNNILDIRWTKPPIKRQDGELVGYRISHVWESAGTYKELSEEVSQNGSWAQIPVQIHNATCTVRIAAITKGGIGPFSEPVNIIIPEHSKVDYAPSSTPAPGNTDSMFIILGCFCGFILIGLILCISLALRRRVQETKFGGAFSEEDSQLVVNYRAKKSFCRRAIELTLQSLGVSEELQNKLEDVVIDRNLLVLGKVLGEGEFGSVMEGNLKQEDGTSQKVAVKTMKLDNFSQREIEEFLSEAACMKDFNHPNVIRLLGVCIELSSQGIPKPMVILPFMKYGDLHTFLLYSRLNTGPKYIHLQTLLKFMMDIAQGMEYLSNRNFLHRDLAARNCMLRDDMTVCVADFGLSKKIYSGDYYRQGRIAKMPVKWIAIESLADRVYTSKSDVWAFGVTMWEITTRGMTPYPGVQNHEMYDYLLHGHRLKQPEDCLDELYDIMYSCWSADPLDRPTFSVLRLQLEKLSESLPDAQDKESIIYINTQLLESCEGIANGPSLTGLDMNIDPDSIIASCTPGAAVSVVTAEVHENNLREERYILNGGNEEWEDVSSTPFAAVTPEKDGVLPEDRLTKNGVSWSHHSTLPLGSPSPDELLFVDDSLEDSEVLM

B1: MTK-207 (antibody, human IgG1, V domains shown)
VH: QVQLKESGPGLVAPSQSLSITCTVSGISLTSYGVSWVRQPPGKGLEWLGIIWGDGSTNYHSALISRLSISKDNSKSQVFLKLNSLQTDDTATYYCAKGRYGNYEDWYFDVWGTGTTVTVSS
VL: DIQMTQSPASLSASVGETVTITCRASGNIHNYLAWYQQKQGKSPQLLVYNAKTLAAGVPSRFSGSGSGTQYSLKINSLQPEDFGSYYCQHFWSIPLTFGAGTKLELK
B2: MTK-208 (antibody, human IgG1, V domains shown)
VH: QVQLQQPGAELVVPGASVRLSCKASGYTFINYWMHWVKQRPGQGLEWIGEIDPSDSYANYNQKFKDKSTLSLDKSSSTAYMQLSSLTSEDSAVYYCARCDYYGRLDYWGQGTTLTVSS
VL: QVVLTQSPAIMSASPGEKVTITCSASSSVSYMLWFQQKPGTSPKLWIYSTSNLASGVPARFSGSGSGTSYSLTISRLEAEDAATYYCQQRSSYPPITFGAGTKLELK
B3: MTK-225 (antibody, human IgG1, V domains shown)
VH: EVQLQQSGPELVKPGASVKIFCKASGYTFTAYNMDWVKQSHGKSLEWIGDINPNNGGTIYNQKFKGKATLTVDKSSSTAYMELRSLTSEDTAVYYCARRRRYGNTYYWYFDVWGTGTTVTVSS
VL: DIQMTQSPASLSVSVGETVTITCRASENIYSSLAWYQQKQGKSPQLLVYAATNLADGVPSRFSGSGSGTQFYLKINGLQSEDFGSYYCQHFWGTSYTFGGGTKLEIK
B4: MTK-221 (antibody, human IgG1, V domains shown)
VH: QVTLKESGPGMLQSSQTLSLTCSFSGFSLSTSGMGVSWIRQPSGKGLEWLAHIYWDDDKRYNTSLQSRLTISKDTSRNQVFLKITSVDTADTATYFCGRLGAYSAFPYYFDYWGQGTTLTVSS
VL: DIQMTQSPSSLSASLGGKVTITCKASQDIHKHIAWYQHKPGKGPRLLIHYTSTLQPGIPSRFSGSGSGRDYSFSISNLEPEDLATYYCLQYDNLWTFGGGTKLEIK

These binders were tested against T1, Recombinant human MerTK-human Fc … (assay: blocking ELISA, Gas6-His on MerTK-Fc, Ab 66.6 nM, isotype=100%).
Experimental: (§1) Briefly, rabbit anti-human IgG antibody (Jackson ImmunoResearch, Cat #309-005-008) was coated at 2 μg/ml onto high-protein binding plates at 4° C. overnight. After washing with 0.05% Tween20 in PBS three times, 5% BSA in PBS was added for 1 hour. Recombinant human MerTK-human Fe Chimera protein (R&D systems, Cat #391-MR-100) was added at 2 μg/ml for 1 hour and plates were washed before the addition of 40 μl of anti-MerTK hybridoma supernatants and 40 μl of His tag-conjugated recombinant Gas6 (R&D systems, Cat #885-GSB-050) at 3 μg/ml or His tag-conjugated recombinant ProS (R&D systems, Cat #9489-PS-100) at 20 μg/ml. After a further incubation for 1 hour, plates were washed and incubated for 1 hour with HRP-conjugated anti-6×His tagged antibody (Abcam, Cambridge, MA, Cat #ab1187). Plates were then washed and an HRP substrate, TMB, was added to develop the plates. The reaction was stopped by adding 50 μl 2N H₂SO₄ and the OD was measured using a spectrophotometer (BioTek).
(§2) Anti-MerTK antibodies were titrated to a final concentration from 66.6 nM to 4 pM and tested against anti-human MerTK antibody M6 (disclosed in WO2016/106221) or isotype control antibody.

Row | Percent Gas6 ligand binding | Binder
1 | 116% | B1
2 | 107% | B2
3 | 120% | B3
4 | 106% | B4

What follows are binders tested against T2, mouse MerTK overexpressed on CHO cells (assay: FACS, CHO-muMerTK OE cells, 10 ug/ml).
How it was run: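 Cells were plated at 100,000 per well, exposed to antibody (10 μg/ml) on ice for 60 minutes, washed, and labelled with a PE anti-human IgG secondary in Fc block for 30 minutes on ice. Mean fluorescence intensity was then measured by flow cytometry.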

Row | MFI | Binder
5 | 279 MFI | B1
6 | 329 MFI | B2
7 | 285 MFI | B3
8 | 374 MFI | B4

These binders were tested against T1, Recombinant human MerTK-human Fc … (assay: blocking ELISA, ProS-His on MerTK-Fc, Ab 66.6 nM, isotype=100%).
Experimental: as §1, §2

Row | Percent ProS ligand binding | Binder
9 | 95.5% | B1
10 | 71.7% | B2
11 | 186% | B3
12 | 72.8% | B4
